{"source": "patent US20260248947A1", "about": "“Methods of Treating Cancer Using Anti-HER2 Antibody-Drug Conjugates and HER2 Kinase Inhibitors” (Seagen Inc., priority 2023, published 2026)", "key": {"MDA-MB-361": {"tested_on": "MDA-MB-361", "assay": "144-hour CellTiter-Glo cytotoxicity assay, DV and T-DXd", "format": "cell-based", "conditions": "MDA-MB-361, 60,000 HER2 receptors/cell, 1-10,000 ng/mL", "method": "(§1) DV and T-DXd were evaluated against breast cancer cell lines spanning a range of HER2 expression levels (calculated by quantitative flow cytometry): HCC-1954 with 1,259,000 HER2 receptors/cell, MDA-MB-361 with 60,000 HER2 receptors/cell, and HCC-38 with 20,000 HER2 receptors/cell. Drugs were titrated (1-10,000 ng/mL), and viability was tested in a 144-hour CellTiter-Glo cytotoxicity assay."}, "HCC-38": {"tested_on": "HCC-38", "assay": "144-hour CellTiter-Glo cytotoxicity assay, DV and T-DXd", "format": "cell-based", "conditions": "HCC-38, 20,000 HER2 receptors/cell, 1-10,000 ng/mL", "method": "as §1"}, "HCC-1954": {"tested_on": "HCC-1954", "assay": "144-hour CellTiter-Glo cytotoxicity assay, DV and T-DXd", "format": "cell-based", "conditions": "HCC-1954, 1,259,000 HER2 receptors/cell, 1-10,000 ng/mL", "method": "as §1"}, "[1]": {"tested_on": "GA3102 (IHC 3+) gastric cancer PDX", "assay": "Tumor volume / normalized AUC in gastric cancer PDX model", "format": "in vivo, Mice", "conditions": "GA3102 (FIGS. 12K, 12L); tucatinib 50 mg/kg oral twice daily, DV 2 mg/kg intravenous single dose", "excerpt": "(§2) FIGS. […] show the effects of combining DV and tucatinib vs. DV as a single agent in gastric cancer patient-derived xenograft (PDX) models with varying HER2 expression levels: GA13745 (IHC 1+; FIGS. 12A, 12B), GA6821 (IHC 1+; FIGS. 12C, 12D), CTG-0148 (IHC 1+; FIGS. 12E, 12F), CTG-3036 (IHC 2+; FIGS. 12G, 12H), CTG-3033 (IHC 3+; FIGS. 12I, 12J), and GA3102 (IHC 3+; FIGS. 12K, 12L). Treatment with T-DXd, a HER2-directed ADC, was also included in the study. Tumor volume data shown as mean±SEM. For each model, tumor growth was evaluated using a normalized area under the curve (AUC) metric (see, Guo, S. et al. (2019) BMC Cancer 19, 718) (FIGS. 12A, 12C, 12E, 12G, 12I, 12K). AUC was calculated for each model for the duration of the experiment, then compared by one-way ANOVA followed by Tukey's post-hoc test. The box-and-whisker plots represent the median and range for each treatment group (FIGS. 12B, 12D, 12F, 12H, 12J, 12L). […]\n(§3) DV and tucatinib were tested as monotherapies and in combination in PDX models with varying HER2 expression levels. […] Mice (n=10/group) were treated with tucatinib (50 mg/kg oral, twice daily), DV (2 mg/kg, intravenous, single dose), a combination of tucatinib and DV, or T-DXd (2 mg/kg, intravenous, single dose), and tumor volume was measured over time."}, "[2]": {"tested_on": "GA6821 (IHC 1+) gastric cancer PDX", "assay": "Tumor volume / normalized AUC in gastric cancer PDX model", "format": "in vivo, Mice", "conditions": "GA6821 (FIGS. 12C, 12D); tucatinib 50 mg/kg oral twice daily, DV 2 mg/kg intravenous single dose", "excerpt": "as §2, §3"}, "[3]": {"tested_on": "PDO SG-634-395-2953 (HER2 low)", "assay": "Patient-derived organoid cytotoxicity, caspase-3/7 fluorescence imaging", "format": "cell-based", "conditions": "DV 27-6,700 ng/mL, T-DXd 41-10,000 ng/mL", "method": "(§4) DV and T-DXd were also tested against a panel of PDOs: HER2 low SG-111-444-6273, HER2 low SG-634-395-2953, and HER2 moderate SG-553-819-8499. DV was titrated across a range of 27-6,700 ng/mL, while T-DXd was titrated across a range of 41-10,000 ng/mL. Drug and media was exchanged every four days. Analysis was conducted with fluorescence imaging: PDOs were identified from clusters of Hoechst positive cells, and caspase-3/7 was used for the identification of apoptotic cells. Mean caspase-3/7 intensity was measured per well and normalized to cell count."}, "[4]": {"tested_on": "PDO SG-111-444-6273 (HER2 low)", "assay": "Patient-derived organoid cytotoxicity, caspase-3/7 fluorescence imaging", "format": "cell-based", "conditions": "DV 27-6,700 ng/mL, T-DXd 41-10,000 ng/mL", "method": "as §4"}, "[5]": {"tested_on": "PDO SG-553-819-8499 (HER2 moderate)", "assay": "Patient-derived organoid cytotoxicity, caspase-3/7 fluorescence imaging", "format": "cell-based", "conditions": "DV 27-6,700 ng/mL, T-DXd 41-10,000 ng/mL", "method": "as §4"}, "[6]": {"tested_on": "HER2-low breast cancer patient-derived xenograft (PDX) models CTG-1520 (IHC 0), CTG-0012 (IHC 1+), CTG-0670 (IHC 2+)", "assay": "Tumor volume in HER2-low breast cancer PDX models", "format": "in vivo, Mice", "conditions": "single intravenous dose 0.3, 1, 2 or 5 mg/kg; in a subset of the models", "method": "First, the anti-tumor effect of DV as a monotherapy was tested in three PDX models with varying HER2 expression levels. Three breast cancer PDX models were used: CTG-1520 (IHC 0), CTG-0012 (IHC 1+), and CTG-0670 (IHC 2+). Mice (n=10/group) were treated with the indicated concentrations of DV (intravenous, single dose), and tumor volume was measured over time. […] Dashed lines represent carry-over of tumor volumes from individual animals that were removed from study when their tumors reached maximum allowable size (less than 3/10 animals per group).\nNext, DV and tucatinib were tested as monotherapies and in combination in the three PDX models. Mice (n=10/group) were treated with the indicated concentrations of tucatinib (50 mg/kg oral, twice daily), DV (1 or 2 mg/kg, intravenous, single dose), or a combination of tucatinib and DV, and tumor volume was measured over time. […] Dotted lines represent carry-over of tumor volumes from individual animals that were removed from study when their tumors reached maximum allowable size (less than 3/10 animals per group)."}, "[7]": {"tested_on": "gastric cancer PDX models", "assay": "Tumor volume in gastric cancer PDX models with variable HER2 expression", "format": "in vivo, Mice", "conditions": "in a majority of the six PDX models; DV 2 mg/kg intravenous single dose", "excerpt": "as §2, §3"}}}
{"substance": "disitamab vedotin [DV]", "values": [{"measurement": "single-agent cytotoxic activity as compared to T-DXd", "setting": "MDA-MB-361", "value": "more potent single-agent cytotoxic activity"}, {"measurement": "single-agent cytotoxic activity as compared to T-DXd", "setting": "HCC-38", "value": "more potent single-agent cytotoxic activity"}, {"measurement": "single-agent cytotoxic activity as compared to T-DXd", "setting": "HCC-1954", "value": "more potent single-agent cytotoxic activity"}, {"measurement": "anti-tumor activity compared to untreated control (normalized AUC tumor growth metric)", "setting": "[1]", "value": "significant anti-tumor activity"}, {"measurement": "anti-tumor activity compared to untreated control (normalized AUC tumor growth metric)", "setting": "[2]", "value": "significant anti-tumor activity"}, {"measurement": "single-agent cytotoxic activity as compared to T-DXd (caspase-3/7 intensity)", "setting": "[3]", "value": "more potent single-agent cytotoxic activity"}, {"measurement": "single-agent cytotoxic activity as compared to T-DXd (caspase-3/7 intensity)", "setting": "[4]", "value": "more potent single-agent cytotoxic activity"}, {"measurement": "single-agent cytotoxic activity as compared to T-DXd (caspase-3/7 intensity)", "setting": "[5]", "value": "more potent single-agent cytotoxic activity"}, {"measurement": "anti-tumor effects (tumor volume) of DV monotherapy", "setting": "[6]", "value": "anti-tumor effects in a dose-dependent manner"}, {"measurement": "anti-tumor activity of DV monotherapy", "setting": "[7]", "value": "anti-tumor activity"}]}
